Literature values, collected in article PMC8569824.

Target: Amyloid beta (1-40) Aβ 1-40 (Homo sapiens) (UniProt P05067)
Experiment: seed-dependent aggregation inhibition

Chain of UniProt P05067 (P05067 1-40): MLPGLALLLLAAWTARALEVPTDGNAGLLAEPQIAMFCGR

Ki: 750 nM
Substance: L-PGDS (from UniProt P41222)
